US20230137032A1 (GlaxoSmithKline, published 2023)
Where a chain is given by its changes, count along the chain named.

T1: human BCMA expressed on cells (human, UniProt Q02223 1-184)
T1 construct: whole, on cells; also called human BCMA HEK293; ARH77-hBCMA 10B5 BCMA expressing transfectant cells
T1 sequence (looked up): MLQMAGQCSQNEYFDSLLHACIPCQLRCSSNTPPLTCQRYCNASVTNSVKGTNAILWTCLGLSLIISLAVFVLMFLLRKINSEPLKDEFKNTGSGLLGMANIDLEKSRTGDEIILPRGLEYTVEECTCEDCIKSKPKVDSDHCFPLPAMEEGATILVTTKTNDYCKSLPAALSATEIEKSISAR

T2: recombinant human BCMA, commercial (US Biological, B0410) (human, UniProt Q02223 5-54, limits assumed)
T2 construct: also called commercial human BCMA; Human commercial BCMA
T2 chain (looked up): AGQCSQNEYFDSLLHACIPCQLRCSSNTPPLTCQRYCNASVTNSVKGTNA

B1: CA8 humanised J9M1 (antibody, human IgG1, kappa, V domains shown)
VH: QVQLVQSGAEVKKPGSSVKVSCKGSGYTFTNYWMHWVRQAPGQGLEWIGATYRGHSDTYYNQKFKGRATLTADTSTSTAYMELSSLRSEDTAVYYCTRGAIYDGYDVLDNWGQGTLVTVSS
VL: DIQMTQSPSSLSASVGDRVTITCSASQDISNYLNWYQQKPGKAPKLLIYYTSNLHSGVPSRFSGSGSGTDYTLTISSLQPEDFATYYCQQYRKLPWTFGQGTKLEIKR
notes: Humanised CA8, heavy chain J9 with light chain M1, human IgG1 kappa; also called CA8 J9M1
B2: S307118G03 humanised H3L1 (antibody, human IgG1, kappa, V domains shown)
VH: QVQLVQSGAEVKKPGSSVKVSCKASGYTFTDYYMKWVRQAPGQGLEWIGEIYPNNGGITYNQKFKGRATLTVDKSTSTAYMELSSLRSEDTAVYYCANGYEFVYWGQGTLVTVSS
VL: B1 VL with D28G, N53S, R92S
notes: Humanised, human IgG1 kappa
B3: CA8 humanised J0M0 (antibody, human IgG1, kappa, V domains shown)
VH: B1 VH with G24A, Y27G, T30S, I48M, A68V, L70I, T74K, T97A, D103N
VL: B1 VL with Y71F
notes: Humanised CA8, heavy chain J0 with light chain M0, human IgG1 kappa; also called CA8 J0M0
B4: CA8 humanised J5M0 (antibody, human IgG1, kappa, V domains shown)
VH: B1 VH with I48M, A68V, L70I
VL: B1 VL with Y71F
notes: Humanised CA8, heavy chain J5 with light chain M0, human IgG1 kappa; also called CA8 J5M0
B5: CA8 humanised J3M2 (antibody, human IgG1, kappa, V domains shown)
VH: B1 VH with I48M, A68V, L70I, D103N
VL: B1 VL with M4L, K45E, L47V
notes: Humanised CA8, heavy chain J3 with light chain M2, human IgG1 kappa; also called CA8 J3M2
B6: CA8 humanised J4M2 (antibody, human IgG1, kappa, V domains shown)
VH: B1 VH with D103N
VL: B1 VL with M4L, K45E, L47V
notes: Humanised CA8, heavy chain J4 with light chain M2, human IgG1 kappa; also called CA8 J4M2
B7: CA8 humanised J4M1 (antibody, human IgG1, kappa, V domains shown)
VH: B1 VH with D103N
VL: B1 VL
notes: Humanised CA8, heavy chain J4 with light chain M1, human IgG1 kappa; also called CA8 J4M1
B8: CA8 humanised J0M2 (antibody, human IgG1, kappa, V domains shown)
VH: B1 VH with G24A, Y27G, T30S, I48M, A68V, L70I, T74K, T97A, D103N
VL: B1 VL with M4L, K45E, L47V
notes: Humanised CA8, heavy chain J0 with light chain M2, human IgG1 kappa; also called CA8 J0M2
B9: CA8 humanised J1M2 (antibody, human IgG1, kappa, V domains shown)
VH: B1 VH with G24A, I48M, A68V, L70I, T74K, T97A, D103N
VL: B1 VL with M4L, K45E, L47V
notes: Humanised CA8, heavy chain J1 with light chain M2, human IgG1 kappa; also called CA8 J1M2
B10: CA8 humanised J5M2 (antibody, human IgG1, kappa, V domains shown)
VH: B1 VH with I48M, A68V, L70I
VL: B1 VL with M4L, K45E, L47V
notes: Humanised CA8, heavy chain J5 with light chain M2, human IgG1 kappa; also called CA8 J5M2
B11: S307118G03 humanised H4L1 (antibody, human IgG1, kappa, V domains shown)
VH: B2 VH with I48M, A68V, L70I, V72A, N98D
VL: B1 VL with D28G, N53S, R92S
notes: Humanised, human IgG1 kappa
B12: CA8 humanised J3M0 (antibody, human IgG1, kappa, V domains shown)
VH: B1 VH with I48M, A68V, L70I, D103N
VL: B1 VL with Y71F
notes: Humanised CA8, heavy chain J3 with light chain M0, human IgG1 kappa; also called CA8 J3M0
B13: CA8 humanised J2M0 (antibody, human IgG1, kappa, V domains shown)
VH: B1 VH with G24A, I48M, A68V, L70I, T74K, D103N
VL: B1 VL with Y71F
notes: Humanised CA8, heavy chain J2 with light chain M0, human IgG1 kappa; also called CA8 J2M0
B14: CA8 humanised J3M1 (antibody, human IgG1, kappa, V domains shown)
VH: B1 VH with I48M, A68V, L70I, D103N
VL: B1 VL
notes: Humanised CA8, heavy chain J3 with light chain M1, human IgG1 kappa; also called CA8 J3M1
B15: S307118G03 humanised H3L0 (antibody, human IgG1, kappa, V domains shown)
VH: B2 VH
VL: B1 VL with D28G, N53S, Y71F, R92S
notes: Humanised, human IgG1 kappa
B16: CA8 humanised J1M1 (antibody, human IgG1, kappa, V domains shown)
VH: B1 VH with G24A, I48M, A68V, L70I, T74K, T97A, D103N
VL: B1 VL
notes: Humanised CA8, heavy chain J1 with light chain M1, human IgG1 kappa; also called CA8 J1M1
B17: CA8 humanised J5M1 (antibody, human IgG1, kappa, V domains shown)
VH: B1 VH with I48M, A68V, L70I
VL: B1 VL
notes: Humanised CA8, heavy chain J5 with light chain M1, human IgG1 kappa; also called CA8 J5M1
B18: CA8 humanised J2M1 (antibody, human IgG1, kappa, V domains shown)
VH: B1 VH with G24A, I48M, A68V, L70I, T74K, D103N
VL: B1 VL
notes: Humanised CA8, heavy chain J2 with light chain M1, human IgG1 kappa; also called CA8 J2M1
B19: CA8 humanised J1M0 (antibody, human IgG1, kappa, V domains shown)
VH: B1 VH with G24A, I48M, A68V, L70I, T74K, T97A, D103N
VL: B1 VL with Y71F
notes: Humanised CA8, heavy chain J1 with light chain M0, human IgG1 kappa; also called CA8 J1M0
B20: CA8 humanised J2M2 (antibody, human IgG1, kappa, V domains shown)
VH: B1 VH with G24A, I48M, A68V, L70I, T74K, D103N
VL: B1 VL with M4L, K45E, L47V
notes: Humanised CA8, heavy chain J2 with light chain M2, human IgG1 kappa; also called CA8 J2M2
B21: S307118G03 humanised H2L1 (antibody, human IgG1, kappa, V domains shown)
VH: B2 VH with I48M, A68V, L70I, V72A
VL: B1 VL with D28G, N53S, R92S
notes: Humanised, human IgG1 kappa
B22: S307118G03 humanised H2L0 (antibody, human IgG1, kappa, V domains shown)
VH: B2 VH with I48M, A68V, L70I, V72A
VL: B1 VL with D28G, N53S, Y71F, R92S
notes: Humanised, human IgG1 kappa
B23: CA8 humanised J4M0 (antibody, human IgG1, kappa, V domains shown)
VH: B1 VH with D103N
VL: B1 VL with Y71F
notes: Humanised CA8, heavy chain J4 with light chain M0, human IgG1 kappa; also called CA8 J4M0
B24: CA8 humanised J0M1 (antibody, human IgG1, kappa, V domains shown)
VH: B1 VH with G24A, Y27G, T30S, I48M, A68V, L70I, T74K, T97A, D103N
VL: B1 VL
notes: Humanised CA8, heavy chain J0 with light chain M1, human IgG1 kappa; also called CA8 J0M1
B25: CA8 humanised J7M1 (antibody, human IgG1, kappa, V domains shown)
VH: B1 VH with G24A, I48M, A68V, L70I, T74K, T97A
VL: B1 VL
notes: Humanised CA8, heavy chain J7 with light chain M1, human IgG1 kappa; also called CA8 J7M1
B26: CA8 humanised J8M1 (antibody, human IgG1, kappa, V domains shown)
VH: B1 VH with G24A, I48M, A68V, L70I, T74K
VL: B1 VL
notes: Humanised CA8, heavy chain J8 with light chain M1, human IgG1 kappa; also called CA8 J8M1
B27: CA8 humanised J8M2 (antibody, human IgG1, kappa, V domains shown)
VH: B1 VH with G24A, I48M, A68V, L70I, T74K
VL: B1 VL with M4L, K45E, L47V
notes: Humanised CA8, heavy chain J8 with light chain M2, human IgG1 kappa; also called CA8 J8M2
B28: CA8 humanised J8M0 (antibody, human IgG1, kappa, V domains shown)
VH: B1 VH with G24A, I48M, A68V, L70I, T74K
VL: B1 VL with Y71F
notes: Humanised CA8, heavy chain J8 with light chain M0, human IgG1 kappa; also called CA8 J8M0
B29: CA8 humanised J9M2 (antibody, human IgG1, kappa, V domains shown)
VH: B1 VH
VL: B1 VL with M4L, K45E, L47V
notes: Humanised CA8, heavy chain J9 with light chain M2, human IgG1 kappa; also called CA8 J9M2
B30: CA8 humanised J7M2 (antibody, human IgG1, kappa, V domains shown)
VH: B1 VH with G24A, I48M, A68V, L70I, T74K, T97A
VL: B1 VL with M4L, K45E, L47V
notes: Humanised CA8, heavy chain J7 with light chain M2, human IgG1 kappa; also called CA8 J7M2
B31: CA8 humanised J7M0 (antibody, human IgG1, kappa, V domains shown)
VH: B1 VH with G24A, I48M, A68V, L70I, T74K, T97A
VL: B1 VL with Y71F
notes: Humanised CA8, heavy chain J7 with light chain M0, human IgG1 kappa; also called CA8 J7M0
B32: S307118G03 H5L0 (antibody, human IgG1, kappa, V domains shown)
VH: B2 VH with V103D
VL: B1 VL with D28G, N53S, Y71F, R92S
notes: Humanised, human IgG1 kappa; also called S307118G03 humanised H5L0

Target: T1, human BCMA expressed on cells
Assay: FACS on ARH77-hBCMA 10B5 transfectant cells, PE anti-human IgG, MFI
Protocol: Cells were then washed with FACS buffer (PBS+0.5% BSA+0.1% sodium azide) to remove unbound antibody. Cells were incubated with a secondary PE labelled anti-human IgG antibody for 15 minutes at RT and then washed with FACS buffer to remove unbound antibody. Cells were analysed by FACS and mean fluorescence intensity (MFI) values measured to determine binding.

| Binder | binding result |
| --- | --- |
| B1 | binds |

Target: T3, recombinant cyno BCMA, in house material (cyno, UniProt A0A2K5UD97 4-52)
T3 construct: also called Cyno in house BCMA
Assay: ProteOn SPR run 1, antibody captured on Protein A, 25C

T3 sequence (A0A2K5UD97 entry or part of it): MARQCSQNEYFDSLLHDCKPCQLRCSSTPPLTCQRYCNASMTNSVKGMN

| Binder | binding result | Kd [pM] |
| --- | --- | --- |
| B2 | no binding |  |
| B3 |  | 648 |
| B4 |  | 25 |
| B5 |  | 159 |
| B6 |  | 179 |
| B7 |  | 203 |
| B8 |  | 563 |
| B9 |  | 303 |
| B10 |  | 109 |
| B11 | no binding |  |
| B12 |  | 526 |
| B13 |  | 538 |
| B14 |  | 196 |
| B15 | no binding |  |
| B16 |  | 442 |
| B17 |  | 112 |
| B18 |  | 218 |
| B19 |  | 849 |
| B20 |  | 106 |
| B21 | no binding |  |
| B22 | no binding |  |
| B23 |  | 866 |
| B24 |  | 503 |

Target: T4, recombinant human BCMA, in house material (human, UniProt Q02223 4-53, limits assumed)
T4 construct: also called Human in house BCMA; In house human BCMA
Assay: as above

| Binder | Kd [pM] | binding result |
| --- | --- | --- |
| B2 | 4860 |  |
| B3 | 435 |  |
| B4 | 87 |  |
| B5 | 362 |  |
| B6 | 281 |  |
| B7 | 278 |  |
| B8 | 310 |  |
| B9 | 1140 |  |
| B10 | 120 |  |
| B11 |  | no binding (tested: up to 256 nM) |
| B12 | 1370 |  |
| B13 | 1940 |  |
| B14 | 438 |  |
| B15 | 5310 |  |
| B16 | 1510 |  |
| B17 | 145 |  |
| B18 | 842 |  |
| B19 | 2820 |  |
| B20 | 482 |  |
| B21 | 6370 |  |
| B22 | 6360 |  |
| B23 | 906 |  |
| B24 | 373 |  |

Target: T3, recombinant cyno BCMA, in house material
Assay: Biacore T100, antibody captured on Protein A, 37C

| Binder | Kd [pM] |
| --- | --- |
| B25 | 1060 |
| B26 | 1280 |
| B27 | 1320 |
| B28 | 1080 |
| B29 | 515 |
| B30 | 1290 |
| B1 | 442 |
| B31 | 1140 |

Target: T2, recombinant human BCMA, commercial (US …)
Assay: Biacore T100, antibody captured on Protein A, 37C

| Binder | Kd [pM] |
| --- | --- |
| B25 | 56 |
| B26 | 50 |
| B27 | 57 |
| B28 | 52 |
| B30 | 57 |
| B1 | 18 |
| B31 | 64 |

Target: T3, recombinant cyno BCMA, in house material
Assay: ProteOn SPR run 2, antibody captured on Protein A, 25C

| Binder | binding result |
| --- | --- |
| B32 | no binding |
